Data reported in paper PMC6179184, “Interaction of the Warsaw breakage syndrome DNA helicase DDX11 with the replication fork-protection factor Timeless promotes sister chromatid cohesion” (PLoS Genetics, 2018).

B1: DDX11-3xFlag wild type [human] / endogenous Timeless (HEK 293T) [human (endogenous in HEK 293T)] (parent complex)
chain 1: MANETQKVGAIHFPFPFTPYSIQEDFMAELYRVLEAGKIGIFESPTGTGKSLSLICGALSWLRDFEQKKREEEARLLETGTGPLHDEKDESLCLSSSCEGAAGTPRPAGEPAWVTQFVQKKEERDLVDRLKAEQARRKQREERLQQLQHRVQLKYAAKRLRQEEEERENLLRLSREMLETGPEAERLEQLESGEEELVLAEYESDEEKKVASRVDEDEDDLEEEHITKIYYCSRTHSQLAQFVHEVKKSPFGKDVRLVSLGSRQNLCVNEDVKSLGSVQLINDRCVDMQRSRHEKKKGAEEEKPKRRRQEKQAACPFYNHEQMGLLRDEALAEVKDMEQLLALGKEARACPYYGSRLAIPAAQLVVLPYQMLLHAATRQAAGIRLQDQVVIIDEAHNLIDTITGMHSVEVSGSQLCQAHSQLLQYVERYGKRLKAKNLMYLKQILYLLEKFVAVLGGNIKQNPNTQSLSQTGTELKTINDFLFQSQIDNINLFKVQRYCEKSMISRKLFGFTERYGAVFSSREQPKLAGFQQFLQSLQPRTTEALAAPADESQASTLRPASPLMHIQGFLAALTTANQDGRVILSRQGSLSQSTLKFLLLNPAVHFAQVVKECRAVVIAGGTMQPVSDFRQQLLACAGVEAERVVEFSCGHVIPPDNILPLVICSGISNQPLEFTFQKRELPQMMDEVGRILCNLCGVVPGGVVCFFPSYEYLRQVHAHWEKGGLLGRLAARKKIFQEPKSAHQVEQVLLAYSRCIQACGQERGQVTGALLLSVVGGKMSEGINFSDNLGRCVVMVGMPFPNIRSAELQEKMAYLDQTLPRAPGQAPPGKALVENLCMKAVNQSIGRAIRHQKDFASVVLLDQRYARPPVLAKLPAWIRARVEVKATFGPAIAAVQKFHREKSASS
chain 2: MDLHMMNCELLATCSALGYLEGDTYHKEPDCLESVKDLIRYLRHEDETRDVRQQLGAAQILQSDLLPILTQHHQDKPLFDAVIRLMVNLTQPALLCFGNLPKEPSFRHHFLQVLTYLQAYKEAFASEKAFGVLSETLYELLQLGWEERQEEDNLLIERILLLVRNILHVPADLDQEKKIDDDASAHDQLLWAIHLSGLDDLLLFLASSSAEEQWSLHVLEIVSLMFRDQNPEQLAGVGQGRLAQERSADFAELEVLRQREMAEKKTRALQRGNRHSRFGGSYIVQGLKSIGERDLIFHKGLHNLRNYSSDLGKQPKKVPKRRQAARELSIQRRSALNVRLFLRDFCSEFLENCYNRLMGSVKDHLLREKAQQHDETYYMWALAFFMAFNRAASFRPGLVSETLSVRTFHFIEQNLTNYYEMMLTDRKEAASWARRMHLALKAYQELLATVNEMDISPDEAVRESSRIIKNNIFYVMEYRELFLALFRKFDERCQPRSFLRDLVETTHLFLKMLERFCRSRGNLVVQNKQKKRRKKKKKVLDQAIVSGNVPSSPEEVEAVWPALAEQLQCCAQNSELSMDSVVPFDAASEVPVEEQRAEAMVRIQDCLLAGQAPQALTLLRSAREVWPEGDVFGSQDISPEEEIQLLKQILSAPLPRQQGPEERGAEEEEEEEEEEEEELQVVQVSEKEFNFLDYLKRFACSTVVRAYVLLLRSYQQNSAHTNHCIVKMLHRLAHDLKMEALLFQLSVFCLFNRLLSDPAAGAYKELVTFAKYILGKFFALAAVNQKAFVELLFWKNTAVVREMTEGYGSLDDRSSSRRAPTWSPEEEAHLRELYLANKDVEGQDVVEAILAHLNTVPRTRKQIIHHLVQMGLADSVKDFQRKGTHIVLWTGDQELELQRLFEEFRDSDDVLGHIMKNITAKRSRARIVDKLLALGLVAERRELYKKRQKKLASSILPNGAESLKDFCQEDLEEEENLPEEDSEEEEEGGSEAEQVQGSLVLSNENLGQSLHQEGFSIPLLWLQNCLIRAADDREEDGCSQAVPLVPLTEENEEAMENEQFQQLLRKLGVRPPASGQETFWRIPAKLSPTQLRRAAASLSQPEEEQKLQPELQPKVPGEQGSDEEHCKEHRAQALRALLLAHKKKAGLASPEEEDAVGKEPLKAAPKKRQLLDSDEEQEEDEGRNRAPELGAPGIQKKKRYQIEDDEDD

Variants of: B1
Assay: co-immuno-precipitation (anti-Flag M2 agarose beads) with quantified Western blot; HEK 293T whole cell extracts, 48 hr post-transfection; three independent experiments; parent: 1; read off a plot

Row | ratio to parent | Variant
1 | ~0.48 | chain 1 E201K, chain 1 Y202A
2 | ~0.56 | chain 1 E201K, chain 1 Y202A, chain 1 E203K
